Reference: patent US20220381787A1, “NOVEL LOX-1 ANTIBODY COMPOSITIONS, LOX1 NEUTRALIZATION ASSAY AND METHODS OF TREATMENT USING SAME” (The Wistar Institute of Anatomy and Biology, priority 2019, published 2022)

Tests used:
[1] = biological target: T1, recombinant human LOX-1 protein (Homo sapiens, UniProt P78380); experiment: IgG avidity test, modified ELISA with 4M urea washes; format: binding; conditions: for avidity: 4M urea ELISA; for strength of binding to hLOX-1 recombinant protein: 4M urea washes, rank order 6A10=12D9>12E4>4D6
T1 construct: The hLOX1 immunogen was cloned into pET30a Escherichia coli expression vector and produced; His tag; made in house; host or cells: Escherichia coli (pET30a)
Protocol: Anti-hLOX-1 mAbs samples were tested for anti-hLOX-1-specific binding to recombinant antigen using a modified ELISA and avidity determined by 4M urea washes against recombinant human LOX-1 protein.
Anti-LOX-1 mAbs samples were tested for anti-LOX-1-specific binding to recombinant antigen using a modified ELISA and avidity determined by 4M urea washes against recombinant human LOX-1 protein. […] Overall out of 16 clones identified, 6 were stronger binders, and 4 were high binders in rank order of strength of binding 6A 10=12D9>12E4>4D6.
Microtiter plates previously coated with recombinant Lox-1 antigens were washed 3 times with PBS plus 0.05% tween 20 (PBST). Hybridomas 1B6, 2A10, 3D8, 3E6, 4D6, 5C2, 5F5, 6A10, 8E7, 9E12, 10H11, 11A6, 12D9, 11C5, 12A10, 12E4, 14A12, and 12G6 samples were diluted as indicated and added (100 μl/well). The avidity of antibodies against hLOX-1 protein was determined by a particle disruption ELISA using 4M Urea. The binding of hLOX1 protein and incubation with mAbs were performed followed by a 5-minute incubation with urea after washing five times with 0.05% PBST. Control (urea-untreated) wells were treated with PBS during the 5-minute incubation. The anti-human IgG conjugated with horseradish peroxidase (HRP) was added with the dilution of 1/5000 in PBS for 1 hour. Afterwards, the plate is washed 5 times, and 100 μl of 3,3′5,5′-Tetramethylbenzidine (TMB) Substrate (Sigma-Aldrich, USA) is added to each well for 10 minutes before the reaction being stopped with 2M H2SO4 solution. The plate is read at 450 nm by Biotek ELISA plate reader.

[2] = biological target: T2, recombinant full length hLOX1 protein (Homo sapiens, UniProt P78380); experiment: Western blot against native and denatured full-length recombinant hLOX1; format: binding; conditions: for binding to denatured LOX-1: denatured condition; for binding to native LOX-1: native condition
T2 construct: The hLOX1 immunogen was cloned into pET30a Escherichia coli expression vector and produced; His tag; made in house; host or cells: Escherichia coli (pET30a)
Excerpt: FIGS. 5A and 5B provide a series of gels showing the binding and specificity of anti-LOX-1 mAbs to target protein analyzed by Western blot analysis. In each figure, the first row of gels was loaded with denatured LOX-1, while the second row of gels was loaded with native LOX-1, as indicated in Example. The clone numbers of the anti-LOX-1 antibodies are listed below the gels.
Immunological reactivity of hLox-1 antibodies was characterized by Western blot analysis against native and denatured full-length recombinant proteins. Protein samples were electrophoretically separated under native or denaturing conditions on SDS-PAGE, performed using Novex gels with reagents as followed: 4-10% mini-gel, 10× Native-PAGE running buffer and 2× Native-PAGE: sample buffer. Denatured protein was heated in a heat block for 10 minutes at 57° C. Two micrograms (2 μg) of recombinant full length hLOX1 protein or non-specific POWV-Env viral protein was loaded to each well along with a protein size marker as a ladder. Gels were run at 150 V for 1 hour in a running buffer. Protein was transferred to a nitrocellulose membrane using the iBlot 2 Gel Transfer Device (Life Technologies). Membranes were blocked in Odyssey blocking buffer (Licor) for 1 hour at room temperature. Indicated hybridomas were diluted 1:250 in 0.5× Odyssey blocking buffer with 0.1% Tween-20 (BioRad) and incubated with the membranes overnight at 4° C. Membranes were washed and then incubated with the appropriate secondary antibody (goat anti-mouse IRDye680RD) for hybridoma samples for 1 hour at room temperature. After washing with PBST 5 times, membranes were imaged on the Odyssey infrared imager.

[3] = biological target: T3, LOX-1 antigen present on the cell surface of 293T cells (Homo sapiens, UniProt P78380); experiment: flow cytometry on hLOX-1 plasmid transfected 293T cells; format: cell-based; conditions: 1 μg/ml antibody
T3 construct: expressed in transfected cells; host or cells: 293T cells
Protocol: (§1) FIG. 8A is a flow cytometric histogram showing fluorescent intensity of cells incubated with recombinantly expressed anti-LOX-1 (IgG1) on the plasmid hLOX-1 transfected cells. Anti-hLOX-1/DNA transfected cells were stained with 1 μg/ml of anti-Lox1 (IgG1) (6A10) antibody plus FITC-labelled goat anti-human IgG secondary antibody. […] FIG. 8B show flow cytometry analysis of PBMCs from whole blood. Flow cytometry analysis of anti-hLOX-1 binding to CD11c^+, CD14^+, CD19^+ and CD3^+ cells in PBMCs from healthy donors. Flow cytometric analyses of anti-CD3, CD4, CD14, CD19 and anti-Lox1 monoclonal antibodies were used to detect their lineage specificity.

[4] = test system: CD11c+, CD14+, CD19+ and CD3+ cells in PBMCs; experiment: flow cytometry of PBMCs from healthy donors; format: cell-based, human
Protocol: as §1

Row | Molecule | avidity [1] | strength of binding to hLOX-1 recombinant protein [1] | binding to native LOX-1 [2] | binding to denatured LOX-1 [2] | binding to non-transfected cells [3] | binding to hLOX-1 transfected cells ([3]; FITC-labelled goat anti-human IgG secondary) | binding to CD3+ cells in PBMCs [4] | binding to immune subset cells in PBMCs ([4]; CD11c+, CD14+, CD19+ cells)
1 | anti-Lox1 (IgG1) (6A10): recombinant antibody, clone 6A10 sequence in IgG1 framework, expressed in Expi293F cells (antibody, V domains shown) VH: EVQLQQSGPELVKPGASVKISCKASGYSFTGYYMHWVKQSHVKSLEWIGRINPYNGATSYNQNFKDKASLTVDKSSSTAYMELHSLTSEDSAVYYCAPDVAYWGQGTLVTVSA VL: DIKMTQSPSSMYASLGERVTITCKASQDINSYLSWFQQKPGKSPKTLIYRANRLVDGVPSRFSGSGSGQDYSLTISSLEYEDMGIYYCLQYDEFPPWTFGGGTKLEIK |  |  |  |  | no binding above background to non-transfected cells | Specific binding to cells transfected with LOX-1 antigen | not to CD3^+ cells | binds to immune subset cells
2 | 3D8: mouse monoclonal anti-human LOX-1 antibody, VH SEQ ID NO: 25, VL SEQ ID NO: 27 (antibody, V domains shown, Amino acid sequence of variable region of the 3D8 heavy chain.; (1)..(19) Signal; (20)..(49) FR1; (50)..(54) C DR1; (55)..(68) FR2; (69)..(85) CDR2; (86)..(117) FR3; (118)..(126) CDR3; (127)..(137) FR4; Amino acid sequence of variable region of the 3D8 light chain.; (1)..(20) signal; (21)..(43) FR1; (44)..(54) CDR1; (55)..(69) FR2; (70)..(76) CDR2; (77)..(108) FR3; (109)..(117) CDR3; (118)..(127) FR4) VH: MEWSWIFLFLLSGTAGVHSEVQLQQSGPELVKPGASVKMSCKASGYTFTSYVMHWVKQKPGQGLEWIGYINPYNDGTKYNEKFKGKATLTSDKSSSTAYMELSSLTSEDSAVYYCARGVYDGYPDYWGQGTTLTVSS VL: MVSTSQLLGLLLFWTSASRCDIVMTQSPATLSVTPGDRVSLSCRASQSISDYLHWYQQKSHESPRLLIKYASQSISGIPSRFSGSGSGSDFTLSINSVEPEDVGVYYCQNGHSFPYTFGGGTKLEIK |  |  | demonstrate binding to native LOX-1 | not denatured LOX-1 (or binding to denatured LOX-1 at a significantly lower level) |  |  |  | 

More lines, main results first:

Row | avidity [1] | strength of binding to hLOX-1 recombinant protein [1] | binding to native LOX-1 [2] | Molecule | binding to denatured LOX-1 [2] | binding to non-transfected cells [3] | binding to hLOX-1 transfected cells ([3]; FITC-labelled goat anti-human IgG secondary) | binding to CD3+ cells in PBMCs [4] | binding to immune subset cells in PBMCs ([4]; CD11c+, CD14+, CD19+ cells)
3 | strong avidity | high binders | demonstrate binding to native LOX-1 | 6A10: mouse monoclonal anti-human LOX-1 antibody, VH SEQ ID NO: 3, VL SEQ ID NO: 5 (antibody, V domains shown, Amino acid sequence of variable region of the 6A10 heavy chain.; SIGNAL (1)..(19) signal seqeunce; (20)..(49) FR1; (50)..(54) CDR1; (55)..(68) FR2; (69)..(85) CDR2; (86)..(117) FR3; (118)..(121) CDR3; (122)..(132) FR4; Amino acid sequence of variable region of the 6A10 light chain.; SIGNAL (1)..(20) signal seqeunce; (21)..(43) FR1; (44)..(54) CDR1; (55)..(69) FR2; (70)..(76) CDR2; (77)..(108) FR3; (109)..(118) CDR3; (119)..(128) FR4) VH: MGWSWIFLFLLSGTAGVLSEVQLQQSGPELVKPGASVKISCKASGYSFTGYYMHWVKQSHVKSLEWIGRINPYNGATSYNQNFKDKASLTVDKSSSTAYMELHSLTSEDSAVYYCAPDVAYWGQGTLVTVSA VL: MRTPAQFLGILLLWFPGIKCDIKMTQSPSSMYASLGERVTITCKASQDINSYLSWFQQKPGKSPKTLIYRANRLVDGVPSRFSGSGSGQDYSLTISSLEYEDMGIYYCLQYDEFPPWTFGGGTKLEIK | not denatured LOX-1 (or binding to denatured LOX-1 at a significantly lower level) |  |  |  | 
4 | strong avidity | high binders | demonstrate binding to native LOX-1 | 12D9: mouse monoclonal anti-human LOX-1 antibody, VH SEQ ID NO: 11, VL SEQ ID NO: 13 (antibody, V domains shown, Amino acid sequence of variable region of the 12D9 heavy chain.; (1)..(19) signal; (20)..(49) FR1; (50)..(54) CDR1; (55)..(68) FR2; (86)..(117) FR3; (118)..(126) CDR3; (127)..(137) FR4; Amino acid sequence of variable region of the 12D9 light chain.; (1)..(20) signal; (21)..(43) FR1; (44)..(54) CDR1; (55)..(69) FR2; (70)..(76) CDR2; (77)..(108) FR3; (109)..(117) CDR3; (118)..(127) FR4) VH: MAWVWTLLFLMAAAQSAQAQIQLVQSGPELKKPGETVKISCKASGYTFTNYGMNWVKQTPGKGLKWMGWINTYTGEPTYTDDFKGRFAFSLETSASTASLQIINLKNEDTATYFCARGGDFYAMDYWGQGTSVTVSS VL: MESQTLVFISILLWLYGADGNIVMTQSPKSMSMSVGERVTLSCKASENVGTYVSWYQQKPEQSPKLVIFGASNRNTGVPDRFTGSGFATDFTLTISSVQAEDLGDYHCGQSSNYPYTFGGGTKLEIK | not denatured LOX-1 (or binding to denatured LOX-1 at a significantly lower level) |  |  |  | 
5 |  | high binders | demonstrate binding to native LOX-1 | 12E4: mouse monoclonal anti-human LOX-1 antibody, VH SEQ ID NO: 15, VL SEQ ID NO: 17 (antibody, V domains shown, Amino acid sequence of variable region of the 12E4 heavy chain.; (1)..(19) signal; (20)..(49) FR1; (50)..(54) CDR1; (55)..(68) FR2; (69)..(85) CDR2; (86)..(117) FR3; (118)..(125) CDR3; (126)..(136) FR4; Amino acid sequence of variable region of the 12E4 light chain.; (20)..(42) FR1; (43)..(53) CDR1; (54)..(68) FR2; (69)..(75) CDR2; (76)..(107) FR3; (108)..(116) CDR3; (117)..(126) FR4) VH: MGWSWIFLFLLSGTAGVHSEVQLQQSGPELVKPGASMKISCKASGYSFTGYTMNWVKQSHGKNLEWIGLINPYNGGTSYNQKFKGKATLTVDKSSSTAYMELLSLTSEDSAVYYCARGGFYAMDYWGQGTSVTVSS VL: MSSAQFLGLLLLCFQGTRCDIQMTQTTSSLSASLGDRVTISCSASQGISNYLNWYQQKPDGTVKLLIYYTSSLHSGVPSRFSGSGSGTDYSLTISNLEPEDIATYYCQQYSKLPYTFGGGTKLEIK | not denatured LOX-1 (or binding to denatured LOX-1 at a significantly lower level) |  |  |  | 
